Numbered stars: 1 amine (or outer) side, 2 acyl side, 3 side chain; on linkers, the order of the positions; unused ones are H or OH. Bridge positions count the residues as written; N and C are the ends. Side chains are listed from the residue outwards. Ends that are not written are not given here. * marks the point of attachment. C20 diacid = O=C(O)CCCCCCCCCCCCCCCCCCC(=O)*; C18 diacid = O=C(O)CCCCCCCCCCCCCCCCC(=O)*; C16 diacid = O=C(O)CCCCCCCCCCCCCCC(=O)*; γGlu = O=C(O)[C@H](CCC(=O)[*:2])N[*:1]; AEEA = NCCOCCOCC(=O)O
T1: human calcitonin receptor (human, UniProt P30988 25-474)
T1 construct: whole, on cells; Used as cell membranes; also called hCTR; hCT
T1 sequence (looked up): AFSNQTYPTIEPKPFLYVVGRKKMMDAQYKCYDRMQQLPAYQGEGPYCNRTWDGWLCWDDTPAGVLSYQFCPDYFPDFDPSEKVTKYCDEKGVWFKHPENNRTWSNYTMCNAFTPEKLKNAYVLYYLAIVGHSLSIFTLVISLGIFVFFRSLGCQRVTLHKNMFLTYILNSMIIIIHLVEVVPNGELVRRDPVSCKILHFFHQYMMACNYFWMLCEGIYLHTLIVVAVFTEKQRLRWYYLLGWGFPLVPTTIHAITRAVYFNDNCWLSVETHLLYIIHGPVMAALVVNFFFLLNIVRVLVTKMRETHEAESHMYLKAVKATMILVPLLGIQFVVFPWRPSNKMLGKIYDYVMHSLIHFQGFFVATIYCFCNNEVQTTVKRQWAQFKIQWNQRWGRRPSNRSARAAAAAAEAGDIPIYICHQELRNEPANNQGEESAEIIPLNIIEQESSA

T2: human calcitonin receptor (human, UniProt P30988 25-474)
T2 construct: whole, on cells; also called hCTR; hCT
T2 sequence (looked up): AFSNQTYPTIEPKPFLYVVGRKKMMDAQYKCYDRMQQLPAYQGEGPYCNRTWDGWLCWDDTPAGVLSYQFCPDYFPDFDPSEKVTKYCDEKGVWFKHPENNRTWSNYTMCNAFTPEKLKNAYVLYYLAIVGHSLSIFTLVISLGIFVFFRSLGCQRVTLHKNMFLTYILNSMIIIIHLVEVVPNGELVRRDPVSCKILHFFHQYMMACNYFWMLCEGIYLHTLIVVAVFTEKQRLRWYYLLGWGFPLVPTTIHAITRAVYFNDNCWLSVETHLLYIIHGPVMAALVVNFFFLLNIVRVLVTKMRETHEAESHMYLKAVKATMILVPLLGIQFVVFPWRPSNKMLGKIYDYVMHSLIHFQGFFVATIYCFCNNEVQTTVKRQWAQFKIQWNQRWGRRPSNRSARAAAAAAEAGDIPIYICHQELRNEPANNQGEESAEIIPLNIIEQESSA


What was measured:
[1] = target: T1, human calcitonin receptor; test: ratio of hCTR IC50 to hAmylin-R IC50 (reference: human amylin receptor)
How it was run: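 Scintillation proximity competition binding on cell membranes at 35 ng/μL with SPA beads, in 50 mM Hepes pH 7.4, 1 mM CaCl2, 5 mM MgCl₂, 0.1% OA, 0.02% Tween20. Incubated 120 min at 25° C with shaking. IC₅₀ from one-site competition fit.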

[2] = target: T1, human calcitonin receptor; test: SPA competition on BHK cell membranes, 125I-calcitonin as radioligand (Assay VII)
How it was run: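 BHK hCTR membranes 35 ng/μL + SPA beads 0.05 mg/well; buffer 50 mM Hepes pH 7.4, 1 mM CaCl2, 5 mM MgCl₂, 0.1% OA, 0.02% Tween20. 120 min, 25° C., shaking. Scintillation count; IC50 by one-site binding competition.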

[3] = target: T2, human calcitonin receptor; test: ratio of IC50 at human calcitonin receptor to IC50 at human amylin receptor (SPA competition assays)
Description: The resulting pellet was resuspended, homogenized and centrifuged (20.000 rpm, 15 min) in a buffer containing 20 mM Na-HEPES and 0.1 mM EDTA (pH 7.4, buffer 2). The resulting pellet was resuspended in buffer 2 and protein concentration was measured (BCA protein Assay, Pierce). The homogenate was kept cold during the whole procedure. The membranes were kept at −80° C. until use. The assay was performed in a 384 well Optiplate (PerkinElmer) in a total volume of 40 ul. Membranes were mixed with SPA beads. Final concentration of membranes 35 ng/μL final and SPA beads was 0.05 mg/well. Test-compounds were dissolved in DMSO and further diluted in assay buffer (50 mM Hepes, pH 7.4, 1 mM CaCl2, 5 mM MgCl₂, 0.1% OA and 0.02% Tween20). […] The final mixture was incubated with shaking at 400 rpm for 120 min at 25° C. prior to centrifugation (1500 rpm, 10 min). Samples were analyzed on TopCounter™ (Packard). The IC₅₀ was calculated using (one site binding competition analysis) GraphPad Prism5 as a measure of receptor affinity.
Membranes were prepared in the following way; the cells were rinsed with PBS and incubated with Versene for approximately 5 min before harvesting. The cells were flushed with PBS and the cell-suspension was centrifuged for 5 min at 1000 rpm. Cells were homogenized (Ultrathurrax) in a buffer containing 20 mM Na-HEPES and 10 mM EDTA (pH 7.4) and centrifuged at 20.000 rpm for 15 min. The resulting pellet was resuspended, homogenized and centrifuged (20.000 rpm, 15 min) in a buffer containing 20 mM Na-HEPES and 0.1 mM EDTA (pH 7.4, buffer 2). The resulting pellet was resuspended in buffer 2 and protein concentration was measured (BCA protein Assay, Pierce). The homogenate was kept cold during the whole procedure. The membranes were kept at −80° C. until use. Assay was performed in a 384 well Optiplate (PerkinElmer) in a total volume of 40 ul. Membranes were mixed with SPA beads.

[4] = target: T2, human calcitonin receptor; test: SPA radioligand competition (125I-calcitonin), membranes of BHK cells with human calcitonin receptor
Description: Membranes were prepared in the following way; the cells were rinsed with PBS and incubated with Versene for approximately 5 min before harvesting. The cells were flushed with PBS and the cell-suspension was centrifuged for 5 min at 1000 rpm. Cells were homogenized (Ultrathurrax) in a buffer containing 20 mM Na-HEPES and 10 mM EDTA (pH 7.4) and centrifuged at 20.000 rpm for 15 min. The resulting pellet was resuspended, homogenized and centrifuged (20.000 rpm, 15 min) in a buffer containing 20 mM Na-HEPES and 0.1 mM EDTA (pH 7.4, buffer 2). The resulting pellet was resuspended in buffer 2 and protein concentration was measured (BCA protein Assay, Pierce). The homogenate was kept cold during the whole procedure. The membranes were kept at −80° C. until use. Assay was performed in a 384 well Optiplate (PerkinElmer) in a total volume of 40 ul. Membranes were mixed with SPA beads. Final concentration of membranes 35 ng/μL final and Final concentration of SPA beads was 0.05 mg/well. Test-compounds were dissolved in DMSO and further diluted in assay buffer (50 mM Hepes, pH 7.4, 1 mM CaCl2, 5 mM MgCl₂, 0.1% OA and 0.02% Tween20). […] The final mixture was incubated for 120 min with shaking at 400 rpm at 25° C. prior to centrifugation (1500 rpm, 10 min). Samples were analyzed on TopCounter™ (Packard). The […] was calculated using (one site binding competition analysis) GraphPad Prism5 as a measure of receptor affinity.

Binder	Ratio hCT/hAmylin binding [1]	IC50 [2] [nM]	Ratio hCT/hAmylin binding [3]	IC50 [4] [nM]
{C20 diacid-γGlu}-GRCNTATCATQRLAHFLRHSSPNFGAIPSSTNVGSNTY-NH2 (disulfide 3-8; SMILES CC[C@H](C)[C@H](NC(=O)[C@H](C)NC(=O)CNC(=O)[C@H](Cc1ccccc1)NC(=O)[C@H](CC(N)=O)NC(=O)[C@@H]1CCCN1C(=O)[C@H](CO)NC(=O)[C@H](CO)NC(=O)[C@H](Cc1c[nH]cn1)NC(=O)[C@H](CCCNC(=N)N)NC(=O)[C@H](CC(C)C)NC(=O)[C@H](Cc1ccccc1)NC(=O)[C@H](Cc1c[nH]cn1)NC(=O)[C@H](C)NC(=O)[C@H](CC(C)C)NC(=O)[C@H](CCCNC(=N)N)NC(=O)[C@H](CCC(N)=O)NC(=O)[C@@H](NC(=O)[C@H](C)NC(=O)[C@@H]1CSSC[C@H](NC(=O)[C@H](CCCNC(=N)N)NC(=O)CNC(=O)CC[C@H](NC(=O)CCCCCCCCCCCCCCCCCCC(=O)O)C(=O)O)C(=O)N[C@@H](CC(N)=O)C(=O)N[C@@H]([C@@H](C)O)C(=O)N[C@@H](C)C(=O)N[C@@H]([C@@H](C)O)C(=O)N1)[C@@H](C)O)C(=O)N1CCC[C@H]1C(=O)N[C@@H](CO)C(=O)N[C@@H](CO)C(=O)N[C@H](C(=O)N[C@@H](CC(N)=O)C(=O)N[C@H](C(=O)NCC(=O)N[C@@H](CO)C(=O)N[C@@H](CC(N)=O)C(=O)N[C@H](C(=O)N[C@@H](Cc1ccc(O)cc1)C(N)=O)[C@@H](C)O)C(C)C)[C@@H](C)O, 38 residues; also called compound 99)	100	35	–	–
K([AEEA-γGlu-C20 diacid])CNTATCATQRLANFLRHSSPNFGAIPSSTNVGHNTY-NH2 (disulfide 2-7; N-terminus assumed; SMILES CC[C@H](C)[C@H](NC(=O)[C@H](C)NC(=O)CNC(=O)[C@H](Cc1ccccc1)NC(=O)[C@H](CC(N)=O)NC(=O)[C@@H]1CCCN1C(=O)[C@H](CO)NC(=O)[C@H](CO)NC(=O)[C@H](Cc1c[nH]cn1)NC(=O)[C@H](CCCNC(=N)N)NC(=O)[C@H](CC(C)C)NC(=O)[C@H](Cc1ccccc1)NC(=O)[C@H](CC(N)=O)NC(=O)[C@H](C)NC(=O)[C@H](CC(C)C)NC(=O)[C@H](CCCNC(=N)N)NC(=O)[C@H](CCC(N)=O)NC(=O)[C@@H](NC(=O)[C@H](C)NC(=O)[C@@H]1CSSC[C@H](NC(=O)[C@@H](N)CCCCNC(=O)COCCOCCNC(=O)CC[C@H](NC(=O)CCCCCCCCCCCCCCCCCCC(=O)O)C(=O)O)C(=O)N[C@@H](CC(N)=O)C(=O)N[C@@H]([C@@H](C)O)C(=O)N[C@@H](C)C(=O)N[C@@H]([C@@H](C)O)C(=O)N1)[C@@H](C)O)C(=O)N1CCC[C@H]1C(=O)N[C@@H](CO)C(=O)N[C@@H](CO)C(=O)N[C@H](C(=O)N[C@@H](CC(N)=O)C(=O)N[C@H](C(=O)NCC(=O)N[C@@H](Cc1c[nH]cn1)C(=O)N[C@@H](CC(N)=O)C(=O)N[C@H](C(=O)N[C@@H](Cc1ccc(O)cc1)C(N)=O)[C@@H](C)O)C(C)C)[C@@H](C)O, also called compound 76)	–	–	80	17.2
K([γGlu-C16 diacid])CNTATCATQRLANFLRHSSPNFGAIPSSTNVGHNTY-NH2 (disulfide 2-7; N-terminus assumed; SMILES CC[C@H](C)[C@H](NC(=O)[C@H](C)NC(=O)CNC(=O)[C@H](Cc1ccccc1)NC(=O)[C@H](CC(N)=O)NC(=O)[C@@H]1CCCN1C(=O)[C@H](CO)NC(=O)[C@H](CO)NC(=O)[C@H](Cc1c[nH]cn1)NC(=O)[C@H](CCCNC(=N)N)NC(=O)[C@H](CC(C)C)NC(=O)[C@H](Cc1ccccc1)NC(=O)[C@H](CC(N)=O)NC(=O)[C@H](C)NC(=O)[C@H](CC(C)C)NC(=O)[C@H](CCCNC(=N)N)NC(=O)[C@H](CCC(N)=O)NC(=O)[C@@H](NC(=O)[C@H](C)NC(=O)[C@@H]1CSSC[C@H](NC(=O)[C@@H](N)CCCCNC(=O)CC[C@H](NC(=O)CCCCCCCCCCCCCCC(=O)O)C(=O)O)C(=O)N[C@@H](CC(N)=O)C(=O)N[C@@H]([C@@H](C)O)C(=O)N[C@@H](C)C(=O)N[C@@H]([C@@H](C)O)C(=O)N1)[C@@H](C)O)C(=O)N1CCC[C@H]1C(=O)N[C@@H](CO)C(=O)N[C@@H](CO)C(=O)N[C@H](C(=O)N[C@@H](CC(N)=O)C(=O)N[C@H](C(=O)NCC(=O)N[C@@H](Cc1c[nH]cn1)C(=O)N[C@@H](CC(N)=O)C(=O)N[C@H](C(=O)N[C@@H](Cc1ccc(O)cc1)C(N)=O)[C@@H](C)O)C(C)C)[C@@H](C)O) [N^ε1-[(4S)-4-carboxy-4-(15-carboxypentadecanoylamino)butanoyl]-[Arg17,Pro21,Pro27,His34]-h-amylin]	18.5	10.8	–	–
K([γGlu-C18 diacid])CNTATCATQRLANFLRHSSPNFGAIPSSTNVGHNTY-NH2 (disulfide 2-7; N-terminus assumed; SMILES CC[C@H](C)[C@H](NC(=O)[C@H](C)NC(=O)CNC(=O)[C@H](Cc1ccccc1)NC(=O)[C@H](CC(N)=O)NC(=O)[C@@H]1CCCN1C(=O)[C@H](CO)NC(=O)[C@H](CO)NC(=O)[C@H](Cc1c[nH]cn1)NC(=O)[C@H](CCCNC(=N)N)NC(=O)[C@H](CC(C)C)NC(=O)[C@H](Cc1ccccc1)NC(=O)[C@H](CC(N)=O)NC(=O)[C@H](C)NC(=O)[C@H](CC(C)C)NC(=O)[C@H](CCCNC(=N)N)NC(=O)[C@H](CCC(N)=O)NC(=O)[C@@H](NC(=O)[C@H](C)NC(=O)[C@@H]1CSSC[C@H](NC(=O)[C@@H](N)CCCCNC(=O)CC[C@H](NC(=O)CCCCCCCCCCCCCCCCC(=O)O)C(=O)O)C(=O)N[C@@H](CC(N)=O)C(=O)N[C@@H]([C@@H](C)O)C(=O)N[C@@H](C)C(=O)N[C@@H]([C@@H](C)O)C(=O)N1)[C@@H](C)O)C(=O)N1CCC[C@H]1C(=O)N[C@@H](CO)C(=O)N[C@@H](CO)C(=O)N[C@H](C(=O)N[C@@H](CC(N)=O)C(=O)N[C@H](C(=O)NCC(=O)N[C@@H](Cc1c[nH]cn1)C(=O)N[C@@H](CC(N)=O)C(=O)N[C@H](C(=O)N[C@@H](Cc1ccc(O)cc1)C(N)=O)[C@@H](C)O)C(C)C)[C@@H](C)O) [N^ε1-[(4S)-4-carboxy-4-(17-carboxyheptadecanoylamino)butanoyl]-[Arg17,Pro21,Pro27,His34]-h-amylin]	59.4	22.7	–	–
